Measured values taken from patent publication US20050250700A1 (BRACCO SUISSE, published 2005).
Bridge positions count the residues as written; N and C are the ends. Side chains are listed from the residue outwards. Ends that are not written are not given here. I, II: the chains in the order shown. * marks the point of attachment. Biotin = O=C1N[C@H]2[C@H](CS[C@H]2CCCCC(=O)*)N1; AEEA = NCCOCCOCC(=O)O

What was measured:
[1] = biological target: T1, KDR (VEGFR-2), full-length receptor on cells (human, UniProt P35968 20-1356); assay: competitor 125I-VEGF (300 pM) on KDR-transfected 293H cells; peptide 0.3 µM
T1 construct: whole, on cells; the assay field tells which cells; also called KDR-expressing cells
Method: (§1) Preparation of 30 μM and 0.3 μM peptide solution in 300 pM ¹²⁵I-labeled VEGF: For each 96 well plate, 10 mL of 300 pM ¹²⁵I-labeled VEGF in M199 medium was prepared at 4° C. Each peptide solution (3 mM, prepared as described above) was diluted 1:100 and 1:10000 in 300 μl of M199 media with 300 pM ¹²⁵I-labeled VEGF to prepare 30 μM and 0.3 μM peptide solutions containing 300 pM of ¹²⁵I-labeled VEGF. Once prepared, the solutions were kept on ice until ready to use. The dilution of peptides in M199 media containing 300 pM ¹²⁵I-labeled VEGF was done freshly for each experiment.
(§2) To calculate the specific binding to KDR, the binding of ¹²⁵I-labeled VEGF to mock-transfected cells was subtracted from KDR-transfected cells.

[2] = biological target: T1, KDR (VEGFR-2), full-length receptor on …; assay: competitor 125I-VEGF (300 pM) on KDR-transfected 293H cells; peptide 30 µM
Method: as §1, §2

[3] = biological target: T1, KDR (VEGFR-2), full-length receptor on …; assay: cell-based or functional assay
[4] = biological target: T1, KDR (VEGFR-2), full-length receptor on …; assay: saturation binding of peptide/neutravidin-HRP complex, KDR- minus mock-transfected 293H cells
Method: (§3) After incubation at room temperature, plates were transferred to 4° C. for another half-hour incubation. Subsequently, cells were washed 5 times with ice-cold M199 media and once with ice-cold PBS (in that order). After the final wash, 100 μl of ice cold TMB solution (KPL, cat. # 50-76-00) was added to each well and each plate was incubated for 30 minutes at 37° C. in an air incubator.
Therefore, absorbance on the Y-axis of FIG. 1 is differential absorbance (KDR minus mock) and not the absolute absorbance.

[5] = biological target: T2, chimeric fusion of Ig Fc region with human KDR (human, UniProt P35968 20-764); assay: SPR; form of KDR not stated there
T2 construct: bought, carrier-free; also called KDR-Fc; KDR Fc fusion; not shown: Ig Fc region

[6] = biological target: T1, KDR (VEGFR-2), full-length receptor on …; assay: 3.33 nM peptide mix/neutravidin-HRP complex on 293H cells
Method: Peptide stock solutions were stored at −20C, whereas the Neutravidin HRP stock solution was stored at −80C. […] Fresh peptide/neutravidin HRP complexes were prepared for each experiment.
as §3, with “4C” for “4° C.”, “five” for “5”, “μL” for “μl”, “Gaithersburg, Md.)” for “cat. # 50-76-00)”, “37C” for “37° C.”

[7] = biological target: T2, chimeric fusion of Ig Fc region with …; assay: BIAcore steady state, KD1, KDR-Fc 3000 RU
Method: (§4) The heterodimer was tested for binding to KDR-Fc using Biacore, and an affinity constant was determined as follows.
(§5) All samples were injected in duplicate. […] Following a 10 minute dissociation, any remaining peptide was stripped from the KDR surface with a quickinject of 50 mM NaOH+1 M NaCl for 12 s at 75 μL/min. Sensorgrams were analyzed using BIAevaluation software 3.1 and a hyperbolic double rectangular regression equation in SigmaPlot 6.0.

[8] = biological target: T2, chimeric fusion of Ig Fc region with …; assay: BIAcore steady state, KDAV, KDR-Fc 6000 RU
Method: as §4, §5

[9] = biological target: T2, chimeric fusion of Ig Fc region with …; assay: BIAcore steady state, KDAV, KDR-Fc 3000 RU
Method: as §4, §5

[10] = biological target: T2, chimeric fusion of Ig Fc region with …; assay: BIAcore steady state, KD1, KDR-Fc 1600 RU
[11] = biological target: T2, chimeric fusion of Ig Fc region with …; assay: BIAcore steady state, KD1, KDR-Fc 6000 RU
Method: as §4, §5

[12] = biological target: T2, chimeric fusion of Ig Fc region with …; assay: BIAcore steady state at the higher immobilization densities
Method: as §5

[13] = biological target: T2, chimeric fusion of Ig Fc region with …; assay: BIAcore steady state, KDAV, KDR-Fc 1600 RU
Method: as §4, §5

T1 sequence (P35968 20-1356): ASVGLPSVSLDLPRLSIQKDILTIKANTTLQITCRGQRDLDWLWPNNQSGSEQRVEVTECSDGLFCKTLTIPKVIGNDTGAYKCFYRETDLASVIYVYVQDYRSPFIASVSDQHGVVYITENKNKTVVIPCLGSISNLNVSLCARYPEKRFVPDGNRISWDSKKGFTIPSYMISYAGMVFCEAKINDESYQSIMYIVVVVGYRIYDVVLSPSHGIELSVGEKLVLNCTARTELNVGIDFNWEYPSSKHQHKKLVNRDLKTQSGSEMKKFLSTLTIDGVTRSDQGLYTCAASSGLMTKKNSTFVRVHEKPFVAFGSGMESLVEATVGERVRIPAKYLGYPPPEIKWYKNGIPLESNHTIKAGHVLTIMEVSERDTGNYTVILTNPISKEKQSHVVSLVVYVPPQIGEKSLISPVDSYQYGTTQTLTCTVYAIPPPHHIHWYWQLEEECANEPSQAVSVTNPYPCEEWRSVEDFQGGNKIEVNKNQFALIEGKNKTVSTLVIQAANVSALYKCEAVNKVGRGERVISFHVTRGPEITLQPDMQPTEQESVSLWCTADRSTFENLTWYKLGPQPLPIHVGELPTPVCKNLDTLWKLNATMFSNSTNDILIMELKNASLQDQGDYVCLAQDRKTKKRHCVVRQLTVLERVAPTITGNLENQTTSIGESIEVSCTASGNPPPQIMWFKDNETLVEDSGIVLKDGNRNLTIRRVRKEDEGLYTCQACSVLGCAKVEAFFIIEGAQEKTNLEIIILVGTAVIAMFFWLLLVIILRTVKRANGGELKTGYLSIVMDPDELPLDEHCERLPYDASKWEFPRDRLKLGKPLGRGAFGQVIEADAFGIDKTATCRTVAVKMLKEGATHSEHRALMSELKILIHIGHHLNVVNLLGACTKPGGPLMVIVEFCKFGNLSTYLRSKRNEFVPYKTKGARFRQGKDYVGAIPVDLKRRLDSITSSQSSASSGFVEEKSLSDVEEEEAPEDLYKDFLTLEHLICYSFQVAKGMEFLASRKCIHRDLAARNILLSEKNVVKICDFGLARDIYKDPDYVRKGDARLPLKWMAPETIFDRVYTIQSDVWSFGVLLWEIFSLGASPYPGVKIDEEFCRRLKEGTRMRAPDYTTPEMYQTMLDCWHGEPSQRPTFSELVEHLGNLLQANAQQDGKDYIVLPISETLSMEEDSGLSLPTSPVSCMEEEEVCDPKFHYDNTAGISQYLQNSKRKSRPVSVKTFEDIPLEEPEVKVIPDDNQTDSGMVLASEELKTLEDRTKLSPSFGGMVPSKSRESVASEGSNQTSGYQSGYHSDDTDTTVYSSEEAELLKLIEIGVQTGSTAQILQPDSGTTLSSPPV
T2 sequence (P35968 20-764, change not shown): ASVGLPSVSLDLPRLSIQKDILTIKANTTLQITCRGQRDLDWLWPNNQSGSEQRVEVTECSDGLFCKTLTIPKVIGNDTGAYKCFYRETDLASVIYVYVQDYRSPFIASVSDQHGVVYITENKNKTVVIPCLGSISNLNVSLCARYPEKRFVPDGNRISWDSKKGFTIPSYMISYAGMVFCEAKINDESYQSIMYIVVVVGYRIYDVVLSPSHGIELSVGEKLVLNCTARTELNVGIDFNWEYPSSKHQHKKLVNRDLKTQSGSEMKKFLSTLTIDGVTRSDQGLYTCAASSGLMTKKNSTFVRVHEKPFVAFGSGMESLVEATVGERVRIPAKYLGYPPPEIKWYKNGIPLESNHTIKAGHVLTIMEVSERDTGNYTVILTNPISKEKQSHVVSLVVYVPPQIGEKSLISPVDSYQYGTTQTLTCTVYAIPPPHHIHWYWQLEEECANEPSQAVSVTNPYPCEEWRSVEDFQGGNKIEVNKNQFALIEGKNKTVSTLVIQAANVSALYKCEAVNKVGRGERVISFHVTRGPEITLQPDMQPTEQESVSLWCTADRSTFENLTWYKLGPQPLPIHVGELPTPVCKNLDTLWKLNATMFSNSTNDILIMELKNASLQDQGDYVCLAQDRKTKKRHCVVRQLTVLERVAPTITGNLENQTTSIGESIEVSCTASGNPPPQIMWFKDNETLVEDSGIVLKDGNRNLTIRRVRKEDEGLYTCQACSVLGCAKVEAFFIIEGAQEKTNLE

In the case of Ac-GDSRVCWEDSWGGEVCFRYDP (disulfide 6-16 (inferred)) [acetylated SEQ ID NO:294 without the modified C-terminus (SEQ ID NO:374)], the “% inhibition of 125I-labeled VEGF binding” value [1] is reported as 52.3% and the “% inhibition of 125I-labeled VEGF binding” value [2] is reported as 96.3%.

In the case of VCWEDSWGGEVCFRYDPGGGK (disulfide 2-12 (inferred)) [SEQ ID NO:337, monomeric free peptide], the “IC50, receptor activation assay” value [3] is reported as 1000 nM.

B1: tetrameric complex of biotinylated SEQ ID NO:294 (JJ spacer) with neutravidin-HRP (other)
peptide: Ac-GDSRVCWEDSWGGEVCFRYDPGGGK([AEEA-AEEA-Biotin])-NH2
modifications: disulfide 6-16 (inferred); also: tetrameric complex with neutravidin-HRP
notes: peptides held on neutravidin-HRP (Pierce 31001)
A Kd [4] of 10 nM was found for B1 in this work.

B2: dimer 28 (D28) (peptide)
peptide 1: AQEPEGYAYWEVITLYHEEDGDGGK
peptide 2: AQAFPRFGGDDYWIQQYLRYTDGGK
modifications: also: tail-to-tail heterodimer, linkage not given here
A Kd [5] of 11 nM was found for B2 in this work.

B3: tetrameric neutravidin-HRP complex of SEQ ID NO:294 and SEQ ID NO:264, ratio 2:2 (other)
peptide 1: Ac-GDSRVCWEDSWGGEVCFRYDPGGGK([AEEA-AEEA-Biotin])-NH2
peptide 2: Ac-AGPKWCEEDWYYCMITGTGGGK([AEEA-AEEA-Biotin])-NH2
modifications: disulfide I:6-I:16, II:6-II:13 (inferred); also: tetrameric neutravidin-HRP complex, chain ratio 2:2
notes: nominal composition
B3: binds [6].

B4: dimer 6 (D6) (peptide)
peptide 1: GDSRVCWEDSWGGEVCFRYDPGGGK
peptide 2: AGPTWCEDDWYYCWLFGTGGGK
modifications: disulfide I:6-I:16, II:6-II:13 (inferred); also: heterodimer joined by glutaric acid linkage
A Kd [7] of 25.5 nM, a Kd [8] of 0.662 nM and a Kd [9] of 0.665 nM were found for B4 in this work. The Kd [10] was 46 nM, the Kd [11] was 17 nM and the Kd [12] was ~0.6 nM. The Kd [13] was 1.5 nM, the “IC50, VEGF-induced migration of HUVECs” value [3] was ~12.5 nM and the “IC50, VEGF-induced migration of HUVECs, with 100 nM Adjunct A” value [3] was ~2.5 nM.

B5: tetrameric neutravidin-HRP complex of SEQ ID NO:294 and SEQ ID NO:264, ratio 3:1 (other)
peptide 1: Ac-GDSRVCWEDSWGGEVCFRYDPGGGK([AEEA-AEEA-Biotin])-NH2
peptide 2: Ac-AGPKWCEEDWYYCMITGTGGGK([AEEA-AEEA-Biotin])-NH2
modifications: disulfide I:6-I:16, II:6-II:13 (inferred); also: tetrameric neutravidin-HRP complex, chain ratio 3:1
notes: nominal composition
B5: binds [6].

B6: tetrameric neutravidin-HRP complex of SEQ ID NO:294 and SEQ ID NO:264, ratio 1:3 (other)
peptide 1: Ac-GDSRVCWEDSWGGEVCFRYDPGGGK([AEEA-AEEA-Biotin])-NH2
peptide 2: Ac-AGPKWCEEDWYYCMITGTGGGK([AEEA-AEEA-Biotin])-NH2
modifications: disulfide I:6-I:16, II:6-II:13 (inferred); also: tetrameric neutravidin-HRP complex, chain ratio 1:3
notes: nominal composition
B6: binds [6].
